Residue numbers refer to the chain shown, from its start. Each block holds one binder with its values, some of them ahead of it.
What was measured:
[1] = biological target: T1, human SIRP-α v1 (human, UniProt P78324 31-149); assay: SPR
T1 construct: also called Human v1; Human V1
In short: (§1)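 Purified antibodies were either amine-coupled to a GLC chip or captured via biotinylated Protein A on an NLC chip of a ProteOn XPR36 biosensor. Runs were at 25° C in PBS pH 7.4 with 0.01% Tween-20. SIRP analytes were injected in one-shot kinetic mode at nominal concentrations set by A280 absorbance. Double-referenced data were fitted globally to a simple Langmuir model, giving apparent rate constants, with KD taken as kd/ka.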

[2] = biological target: T2, human SIRP-α v2 (human); assay: SPR
T2 construct: also called Human v2; Human V2
In short: as §1

[3] = biological target: T3, mouse 129 SIRP-α (mouse (129 strain), UniProt P97797 32-150); assay: SPR Koff +/-
T3 construct: also called m129
T3 chain: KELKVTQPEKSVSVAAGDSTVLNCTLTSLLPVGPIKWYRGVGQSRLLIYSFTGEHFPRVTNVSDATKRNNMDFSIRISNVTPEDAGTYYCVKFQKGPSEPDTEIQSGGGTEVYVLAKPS
In short: as §1

[4] = biological target: T4, human SIRPγ isoform 1 (human, UniProt Q9P1W8 29-147); assay: SPR Koff +/-
T4 construct: also called Gamma; Human SIRPg
In short: as §1

[5] = biological target: T5, cynomolgus SIRP-α (cynomolgus monkey, UniProt Q5TFQ8 30-148 (human entry), limits assumed); assay: SPR Koff +/-
T5 construct: also called cyno1
T5 chain: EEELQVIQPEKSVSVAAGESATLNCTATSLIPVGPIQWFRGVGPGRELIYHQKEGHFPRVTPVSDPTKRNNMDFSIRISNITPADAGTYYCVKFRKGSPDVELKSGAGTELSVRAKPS
In short: as §1

[6] = biological target: T6, human SIRPβ isoform 1 (human, UniProt O00241 30-148); assay: SPR Koff +/-
T6 construct: also called Beta; Human SIRPb
In short: as §1

[7] = biological target: T1, human SIRP-α v1; assay: SPR; remark: listed apart in the source
In short: as §1

[8] = biological target: T2, human SIRP-α v2; assay: SPR; remark: listed apart in the source
In short: as §1

[9] = biological target: T5, cynomolgus SIRP-α; assay: SPR
In short: as §1

[10] = biological target: T7, BALBc mouse SIRP-α (mouse (BALB/c strain)); assay: SPR
T7 chain: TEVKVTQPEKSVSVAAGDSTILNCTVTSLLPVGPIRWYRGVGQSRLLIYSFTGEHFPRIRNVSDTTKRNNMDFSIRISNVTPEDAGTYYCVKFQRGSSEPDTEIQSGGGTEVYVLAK
In short: as §1

[11] = biological target: T4, human SIRPγ isoform 1; assay: SPR
In short: as §1

T4 sequence (Q9P1W8 29-147 limits assumed): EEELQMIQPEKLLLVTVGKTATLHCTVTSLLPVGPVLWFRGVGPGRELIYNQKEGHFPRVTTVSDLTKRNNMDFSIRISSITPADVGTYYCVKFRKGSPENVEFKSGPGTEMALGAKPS
T6 sequence (O00241 30-148 limits assumed): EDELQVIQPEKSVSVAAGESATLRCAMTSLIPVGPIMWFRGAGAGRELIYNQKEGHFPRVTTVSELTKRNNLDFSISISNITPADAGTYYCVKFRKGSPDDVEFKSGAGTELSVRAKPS
T2 sequence (chain, as listed by the source limits assumed): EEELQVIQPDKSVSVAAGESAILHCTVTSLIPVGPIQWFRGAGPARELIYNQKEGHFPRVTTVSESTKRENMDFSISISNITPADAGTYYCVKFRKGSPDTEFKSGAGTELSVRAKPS
T1 sequence (P78324 31-149 limits assumed): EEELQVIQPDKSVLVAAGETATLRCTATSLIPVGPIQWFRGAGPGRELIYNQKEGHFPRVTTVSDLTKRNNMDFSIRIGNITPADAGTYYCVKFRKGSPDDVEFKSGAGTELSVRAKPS

B1: antibody 149 (antibody, V domains shown)
VH: DVQLVESGGGVVRPGESLRLSCAASGFTFSNFAMNWVRQAPGEGLEWVSLISVTATTYYADSVKGRFTISRDNSKNTLYLQMNSLRAEDTAVYYCAKVTWNNLFDYWGLGTLVTVSS
VL: EIVLTQSPGTLSLSPGERATLSCRASQPIDSYLAWYQQKPGQAPRLLIYNTVTRATGIPDRFSGSGSGTDFTLTINRLEPEDFAVYYCQHQYDWPPYIFGGGTKVEIK
notes: also called S149
Kd [1]: 0.873 nM | Kd [2]: 0.238 nM | binding result [3]: no binding | binding result [4]: no binding

B2: antibody 161 (antibody, V domains shown)
VH: B1 VH with N35T, E43K, L45P, I51V, N76S, V98I
VL: EIVLTQSPGTLSLSPGERATLSCRASQTVGSKLAWYQQKPGQAPRLLIYDSSSRASGIPDRFSGSGSGTDFTLTISSLQSEDSAVYYCQQHNDWPPYTFGGGTKVEIK
notes: also called S161
Kd [1]: 1.03 nM | Kd [2]: 0.127 nM | binding result [3]: no binding | binding result [4]: no binding

B3: antibody 122 (antibody, V domains shown)
VH: VQLVESGGGVVRPGESLRLSCAASGFRFSNFAMTWVRQAPGEGLEWVSTIGSGDTYYADSVKGRFTISRDNSKNTLYLQMNSLRAEDTAVYYCAKDSTVSWSGDFFDYWGLGTLVTVSS
VL: EIVLTQSPATLSVSPGERATFSCRASQNVKNDLAWYQQRPGQAPRLLIYAARIRETGIPERFSGSGSGTEFTLTITSLQSEDFAVYYCQQYYDWPPFTFGGGTKVEIK
notes: also called S122
Kd [1]: 0.214 nM | Kd [2]: 0.0778 nM | binding result [5]: binds | binding result [3]: no binding | binding result [6]: binds | binding result [4]: binds

B5: antibody 117 (antibody, V domains shown)
VH: VQLVESGGGVVRPGESLRLSCAASGFSFSSYAMNWVRQAPGEGLEWVSRINSGGGGTDYAESVKGRFTISRDNSENTLYLQMNSLRAEDTAVYYCAKQYDWNGFFDYWGLGALVTVSS
VL: ETVLTQSPATLSVSPGERATLSCRASQTVGSKLAWHQQKPGQAPRLLIYDATNRATGIPDRFSGSGSGTDFTLTISSLQTEDSAVYYCQQYYYWPPYRFGGGTKVEIK
notes: also called S117
Kd [1]: 0.0312 nM | binding result [5]: binds | binding result [3]: no binding | binding result [6]: binds | binding result [4]: binds

B8: antibody 137 (antibody, V domains shown)
VH: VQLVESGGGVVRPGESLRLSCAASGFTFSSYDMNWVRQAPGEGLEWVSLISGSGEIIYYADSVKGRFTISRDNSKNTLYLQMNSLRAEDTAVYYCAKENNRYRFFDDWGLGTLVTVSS
VL: ETVLTQSPGTLTLSPGERATLTCRASQSVYTYLAWYQEKPGQAPRLLIYGASSRATGIPDRFSGSGSGTVFTLTISSLQSEDFAVYYCQQYYDRPPLTFGGGTKVEIK
notes: also called S137
Kd [1]: 0.774 nM | Kd [2]: 3.14 nM | binding result [5]: binds | binding result [3]: binds | binding result [6]: binds

B12: antibody 45 (antibody, V domains shown)
VH: AVTLDESGGGLQTPGGALSLVCKASGFTFSSYAMGWVRQAPGKGLEWVAGIDDDGSTANYGPAVKGRATISRDNGQSTVRLQLNNPRAEDSGTYFCAKASVTGWSAHISGRLDTWGHGTEVIVSS
VL: ALTQPASVSANPGETVKITCSGGGIYYYGWYQQKSPGSAPVTLIYENDKRPSDIPSRFSGSTSGSTNTFTITGVQAEDEAVYYCGGYDSNTTSGIFGAGTTLTVL
notes: also called S45; AB45
binding result [5]: no binding

B14: antibody 173 (antibody, V domains shown)
VH: DVQLVESGGGVVRPGESLRLSCAASGFAFSDHDMSWVRQGPGEGLEWVAGISLRGGVTWYADSVKGRFTISRDNSKNTLYLRLFSLRTEDTAIYYCARESWNTFFDYWGLGTLVTVSS
VL: EIVLTQSPGTLSLSPGETATLSCRASQNVRSNLAWYQQKPGQAPRLLIYDASSRATGIPDRFSGSGSGTDFTLTISSLQSEDFAVYYCQQYGNGPPLTFGGGTKVEIK
notes: also called S173
Kd [1]: 0.937 nM | Kd [2]: 9.28 nM | binding result [5]: no binding | binding result [3]: no binding | binding result [6]: no binding | binding result [4]: no binding

B15: antibody 174 (antibody, V domains shown)
VH: B14 VH with A28T
VL: B14 VL
notes: also called S174
binding result [5]: no binding | binding result [3]: no binding | binding result [6]: no binding | binding result [4]: no binding

Results, then the binder that gave them:

Kd [1]: 0.0177 nM | Kd [2]: 0.015 nM | binding result [5]: binds | binding result [3]: no binding | binding result [6]: binds | binding result [4]: binds
B4: antibody 115 (antibody, V domains shown)
VH: DVQLVESGGGVVRPGESLRLSCAASGFSFSSYAMNWVRQAPGEGLEWVSRINSGGGGTDYAESVKGRFTISRDNSENTLYLQMNSLRAEDTAVYYCAKQYDWNSFFDYWGLGALVTVSS
VL: B5 VL with P59S
notes: also called S115

Kd [1]: 0.11 nM | Kd [2]: 0.299 nM | binding result [5]: binds | binding result [3]: no binding | binding result [6]: binds | binding result [4]: binds
B6: antibody 116 (antibody, V domains shown)
VH: B5 VH with G103S
VL: B5 VL with P59S, G66R
notes: also called S116

Kd [1]: 0.0403 nM | binding result [5]: binds | binding result [3]: no binding | binding result [6]: binds | binding result [4]: binds
B7: antibody 118 (antibody, V domains shown)
VH: B5 VH
VL: B5 VL with T52S, N53R
notes: also called S118

Kd [1]: < 0.001 nM | Kd [2]: < 0.001 nM | koff [7]: 0.000707 s⁻¹ | koff [8]: 0.00192 s⁻¹ | koff [9]: 0.00229 s⁻¹ | koff [10]: 0.00241 s⁻¹ | koff [11]: 0.000902 s⁻¹
B9: antibody 21 (antibody, V domains shown)
VH: DVQLVESGGGVVRPGESLRLSCAASGFTFSSNAMSWVRQAPGKGLEWLAGISAGGSDTYYPASVKGRFTISRDNSKNTLYLQMNTLTAEDTAVYYCARETWNHLFDYWGLGTLVTVSS
VL: ALTQPASVSANPGETVKIACSGGDYYSYYYGWYQQKAPGSALVTVIYSDDKRPSDIPSRFSGSASGSTATLTITGVRAEDEAVYYCGGYDYSTYANAFGAGTTLTVL
notes: also called AB21; S21

Kd [1]: < 0.001 nM | koff [7]: 0.000949 s⁻¹ | koff [8]: 0.00281 s⁻¹ | koff [9]: 0.00269 s⁻¹ | koff [10]: 0.00346 s⁻¹ | koff [11]: 0.000997 s⁻¹
B10: antibody 66 (antibody, V domains shown)
VH: B9 VH with N32Y, P61I, A62D, S75P, T78S, N84S, T85S
VL: ALTQPASVSANPGETVKITCSGGDYYSTYYAWYQQKSPGSAPVTVIHSDDKRPSDIPSRFSGSASGSAATLIITGVRVEDEAVYYCGGYDGRTYINTFGAGTTLTVL
notes: also called AB66; S66

Kd [1]: 0.171 nM | Kd [2]: 5.01 nM | binding result [5]: no binding | binding result [4]: no binding
B11: antibody 209 (antibody, V domains shown)
VH: DVQLVESGGAVVRPGESLRLSCKASGFTFTNFAMSWVRQAPGEGLEWVSGISGSDDTTYYADSVKGRFTISRDNSESTLYLQMNSLRAEDTAVYYCVKDSTVSWNTFFDYWGLGTLVTVSS
VL: ALTQPASVSANLGGTVKITCSGGYGSDDGSSSYYGWYQQKSPGSAPVILIYWDDKRPSDIPSRFSGSTSGSTTTLTITGVQAEDEAVYFCGTYDTSSGAIFGAGTTLTVL
notes: also called S209

Kd [1]: < 0.001 nM | Kd [2]: < 0.001 nM | koff [7]: 0.000165 s⁻¹ | koff [8]: 0.000353 s⁻¹ | koff [9]: 0.000394 s⁻¹ | koff [10]: 0.00178 s⁻¹ | koff [11]: 0.000203 s⁻¹
B13: antibody 25 (antibody, V domains shown)
VH: DVQLVESGGGVVRPGESLRLSCEASGFTFSSNAMSWVRQAPGKGLEWVAGISSGSDTYYGDSVKGRLTISRDNSKNILYLQMNSLTAEDTAVYYCARETWNHLFDYWGLGTLVTVSS
VL: ALTQPASVSANPGETVEITCSGGSYSSYYYAWYQQKSPGSAPVTLIYSDDKRPSNIPSRFSGSASGSTATLTITGVRAEDEAVYFCGGYDQSSYTNPFGAGTTLTVL
notes: also called AB25; S25
